4 variants from IntAct's records for PubMed 23001144 can be followed below.

B1: Translocated intimin receptor Tir (Escherichia coli O157:H7), Q7DB77 (parent)
chain: MPIGNLGHNPNVNNSIPPAPPLPSQTDGAGGRGQLINSTGPLGSRALFTPVRNSMADSGDNRASDVPGLPVNPMRLAASEITLNDGFEVLHDHGPLDTLNRQIGSSVFRVETQEDGKHIAVGQRNGVETSVVLSDQEYARLQSIDPEGKDKFVFTGGRGGAGHAMVTVASDITEARQRILELLEPKGTGESKGAGESKGVGELRESNSGAENTTETQTSTSTSSLRSDPKLWLALGTVATGLIGLAATGIVQALALTPEPDSPTTTDPDAAASATETATRDQLTKEAFQNPDNQKVNIDELGNAIPSGVLKDDVVANIEEQAKAAGEEAKQQAIENNAQAQKKYDEQQAKRQEELKVSSGAGYGLSGALILGGGIGVAVTAALHRKNQPVEQTTTTTTTTTTTSARTVENKPANNTPAQGNVDTPGSEDTMESRRSSMASTSSTFFDTSSIGTVQNPYADVKTSLHDSQVPTSNSNTSVQNMGNTDSVVYSTIQHPPRDTTDNGARLLGNPSAGIQSTYARLALSGGLRHDMGGLTGGSNSAVNTSNNPPAPGSHRFV
B2: Translocated intimin receptor Tir (Escherichia coli O127:H6 (strain E2348/69 / EPEC)), B7UM99 (parent)
chain: MPIGNLGNNVNGNHLIPPAPPLPSQTDGAARGGTGHLISSTGALGSRSLFSPLRNSMADSVDSRDIPGLPTNPSRLAAATSETCLLGGFEVLHDKGPLDILNTQIGPSAFRVEVQADGTHAAIGEKNGLEVSVTLSPQEWSSLQSIDTEGKNRFVFTGGRGGSGHPMVTVASDIAEARTKILAKLDPDNHGGRQPKDVDTRSVGVGSASGIDDGVVSETHTSTTNSSVRSDPKFWVSVGAIAAGLAGLAATGIAQALALTPEPDDPTTTDPDQAANAAESATKDQLTQEAFKNPENQKVNIDANGNAIPSGELKDDIVEQIAQQAKEAGEVARQQAVESNAQAQQRYEDQHARRQEELQLSSGIGYGLSSALIVAGGIGAGVTTALHRRNQPAEQTTTTTTHTVVQQQTGGNTPAQGGTDATRAEDASLNRRDSQGSVASTHWSDSSSEVVNPYAEVGGARNSLSAHQPEEHIYDEVAADPGYSVIQNFSGSGPVTGRLIGTPGQGIQSTYALLANSGGLRLGMGGLTSGGESAVSSVNAAPTPGPVRFV

One experiment covers variants of B1. The settings on record: with ptn6_human PTPN6, P29350.
Target sequence in this assay (P29350 whole entry): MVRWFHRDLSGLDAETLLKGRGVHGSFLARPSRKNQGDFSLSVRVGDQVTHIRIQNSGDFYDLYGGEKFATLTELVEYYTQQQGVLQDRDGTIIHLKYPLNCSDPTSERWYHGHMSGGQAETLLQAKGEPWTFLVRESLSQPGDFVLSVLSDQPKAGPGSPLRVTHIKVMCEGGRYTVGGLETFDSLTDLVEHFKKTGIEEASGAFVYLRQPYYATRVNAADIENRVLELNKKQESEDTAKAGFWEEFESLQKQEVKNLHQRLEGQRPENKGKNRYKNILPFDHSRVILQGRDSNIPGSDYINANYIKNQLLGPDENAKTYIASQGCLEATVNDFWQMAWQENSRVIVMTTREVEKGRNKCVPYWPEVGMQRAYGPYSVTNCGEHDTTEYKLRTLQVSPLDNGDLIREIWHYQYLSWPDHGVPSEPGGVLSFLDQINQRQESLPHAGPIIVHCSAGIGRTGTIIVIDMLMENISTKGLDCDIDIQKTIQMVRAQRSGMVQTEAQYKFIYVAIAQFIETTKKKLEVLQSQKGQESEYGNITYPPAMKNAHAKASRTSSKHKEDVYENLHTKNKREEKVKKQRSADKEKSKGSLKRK
Consider Y490F;Y519F, for which the “effect of a mutation on the interaction” value is “decreasing interaction”.

In another experiment the parent is B2. To be noted: with ptn6_human PTPN6, P29350.
Target sequence in this assay (P29350 whole entry): as above
Turning to Y483F;Y511F, the “effect of a mutation on the interaction” value is “decreasing interaction”.

For the variant Y511F, the “effect of a mutation on the interaction” value is on record as “decreasing interaction”.

Y483F: the “effect of a mutation on the interaction” value is recorded as “decreasing interaction”.

Variants of B2 are the subject of the next experiment. The settings on record: with ptn6_mouse Ptpn6, P29351.
Chain of ptn6_mouse Ptpn6, P29351 (P29351 whole entry): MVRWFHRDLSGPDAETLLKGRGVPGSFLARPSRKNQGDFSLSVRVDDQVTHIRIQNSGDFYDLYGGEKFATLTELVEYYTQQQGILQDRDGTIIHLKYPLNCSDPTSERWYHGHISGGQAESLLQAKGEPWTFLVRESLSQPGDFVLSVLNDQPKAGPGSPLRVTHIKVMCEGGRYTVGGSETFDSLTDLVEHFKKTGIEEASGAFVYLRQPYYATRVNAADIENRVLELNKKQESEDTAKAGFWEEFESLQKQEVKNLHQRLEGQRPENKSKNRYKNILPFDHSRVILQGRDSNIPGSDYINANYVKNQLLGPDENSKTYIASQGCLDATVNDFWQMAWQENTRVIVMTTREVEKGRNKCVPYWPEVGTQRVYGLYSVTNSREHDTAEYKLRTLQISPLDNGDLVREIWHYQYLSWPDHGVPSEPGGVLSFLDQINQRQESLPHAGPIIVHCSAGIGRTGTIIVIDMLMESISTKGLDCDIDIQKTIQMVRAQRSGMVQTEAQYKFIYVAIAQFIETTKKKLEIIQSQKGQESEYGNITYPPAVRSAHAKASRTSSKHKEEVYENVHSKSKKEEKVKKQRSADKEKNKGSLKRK
Consider Y483F;Y511F, for which the “effect of a mutation on the interaction” value is on record as “decreasing interaction”.
